Assay [1] deals with T1, human CD3 expressed on cells (Jurkat cells, human T cells) (human, UniProt P07766 22-207). The experiment in a line: cell-based or functional assay.
Assay [2] addresses T2, Mature human CD3e(22-49)_Fc2(K105-K330) (human).
T2 construct: also called hCD3e(22-49)-Fc2(K105-K330); recombinant human CD3e (22-49)-Fc2 (K105-K330)
In words: ELISA, antigen coated on plate. The method, then:
(§1) Bispecific Fab₂-Fc-scFv antibodies according Example 1.2 were tested for their ability to bind to recombinant human and cynomolgus CD3epsilon antigen in ELISA. 5 nM of recombinant human CD3e (22-49)-Fc2 (K105-K330) (SEQ ID NO: 41) or 1 nM of recombinant cynomolgus CD3e (22-49)-Fc2(K105-K330) (SEQ ID NO: 42) were coated on Maxisorp plates (Nunc, #460518). Coated plates were blocked with 5% skim milk in PBS. Antibodies were serially diluted in PBS containing 0.5% skim milk and 0.5% Tween-20. […] EC₅₀ values were calculated using 4-parameter non-linear regression analysis in Prism software (GraphPad Software Inc.)
On the technique in general: In an ELISA, binding on a coated surface is turned into a signal by an enzyme label.

For assay [3], the target named is T3, Mature cynomolgus CD3e(22-49)_Fc2(K105-K330) (cynomolgus).
T3 construct: also called cyCD3e(22-49)-Fc2(K105-K330); recombinant cynomolgus CD3e (22-49)-Fc2(K105-K330)
The experiment in a line: ELISA, antigen coated on plate. How it is done: as §1

Assay [4] has as its target T1, human CD3 expressed on cells (Jurkat …). The experiment in a line: flow cytometry on human T cells, 167 nM antibody.
For assay [5], the target named is Mature human CD3e(22-118)_FLAG-chLys_Avi (human). In words: BLI (Octet), bispecific captured, antigen as analyte. How it is done:
Sensorgrams were evaluated with Data Analysis Software v 10 (Octet/fortébio). All sensorgrams were fitted to a 1:1 binding model to determine kₒₙ and koff rate constants, which were used to calculate the KD value. For kinetic profiles deviating from the expected 1:1 binding, the sensorgrams were evaluated using a best approximation to the monovalent kinetics, and results marked with comment “heterogeneous binding”.
A general note: In BLI a coated tip is dipped into the sample, and binding shifts an interference pattern.

The target of assay [6] is T1, human CD3 expressed on cells (Jurkat …). In words: cell-based or functional assay. This is another data set of the same source.
The target is the same in assay [7]. The experiment in a line: cell-based or functional assay. The source holds these as a separate data set.
Assay [8] shares this target. In words: flow cytometry on Jurkat cells. How it is done: Target cells were mixed with the bispecific antibodies serially diluted (final concentration: 0.1 nM-200 nM) in D-PBS (Gibco) containing 3% fetal bovine serum (Sigma, #F7524) and incubated for 1 h on ice. Cells were washed 2 times in D-PBS (Gibco) containing 3% fetal bovine serum (Sigma, #F7524) and 0.02% […]. […] Antibody staining was measured using FACS Array (Beckton Dickinson) or IntelliCyt iQue flow cytometer and analyzed in FlowJo or ForeCyt (IntelliCyt) softwares, respectively. EC₅₀ values were calculated using 4-parameter non-linear regression analysis in Prism software (GraphPad Software Inc.).
For orientation: Flow cytometry measures light scatter and fluorescence of single cells or particles in a stream.

In assay [9] the target is Mature human CD3e(22-118)_FLAG-chLys_Avi (human). In words: BLI (Octet), bispecific captured, antigen as analyte. The method, then: (§2) Affinity determination by determining kinetic rate constants was performed on an Octet HTX (FortéBIO, Sartorius AG) instrument. […] The association phase was recorded for 180 s, followed by a dissociation phase of 300 s. After each cycle, the biosensors were regenerated two times with 10 mM Glycine HCl pH 1.7 to remove bound ligand/antibody complex, while maintaining the integrity of the capture surface. Between regeneration steps, biosensors were washed with assay buffer for 20 s. Sensorgrams were evaluated with Data Analysis Software v 10 (Octet/fortébio). All sensorgrams were fitted to a 1:1 binding model to determine kₒₙ and koff rate constants, which were used to calculate the KD value. For kinetic profiles deviating from the expected 1:1 binding, the sensorgrams were evaluated using a best approximation to the monovalent kinetics, and results marked with comment “heterogeneous binding”.
The source holds these as a separate data set.

For assay [10] the target is unchanged. The experiment in a line: BLI (Octet), bispecific captured, antigen as analyte; heterogenous binding. How it is done:
as §2

Changes are numbered by the printed parent chain. Names may count otherwise. “And” between values parts separate entries of the source, which are not always exact repeats. Equal entries are not always repeated.

Sequence of Mature human CD3e(22-118)_FLAG-chLys_Avi (human) (chain, as listed by the source limits assumed): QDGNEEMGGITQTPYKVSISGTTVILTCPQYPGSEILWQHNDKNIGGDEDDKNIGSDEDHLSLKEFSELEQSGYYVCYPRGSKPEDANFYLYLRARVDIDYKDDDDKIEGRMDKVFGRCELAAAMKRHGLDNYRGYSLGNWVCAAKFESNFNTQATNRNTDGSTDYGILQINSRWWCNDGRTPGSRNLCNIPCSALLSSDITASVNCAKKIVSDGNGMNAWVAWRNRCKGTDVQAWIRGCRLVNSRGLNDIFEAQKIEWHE
T1 sequence (P07766 22-207): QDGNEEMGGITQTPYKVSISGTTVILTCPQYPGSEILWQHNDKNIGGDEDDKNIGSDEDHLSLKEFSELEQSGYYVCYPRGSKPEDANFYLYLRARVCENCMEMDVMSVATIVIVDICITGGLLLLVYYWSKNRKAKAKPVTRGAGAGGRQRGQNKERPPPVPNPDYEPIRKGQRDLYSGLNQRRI

B1: Bisslg_08_#GP (bispecific antibody)
VH: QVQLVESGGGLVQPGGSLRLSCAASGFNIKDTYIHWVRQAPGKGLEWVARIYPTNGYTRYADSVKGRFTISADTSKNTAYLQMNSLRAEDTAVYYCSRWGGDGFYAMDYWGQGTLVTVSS
VL: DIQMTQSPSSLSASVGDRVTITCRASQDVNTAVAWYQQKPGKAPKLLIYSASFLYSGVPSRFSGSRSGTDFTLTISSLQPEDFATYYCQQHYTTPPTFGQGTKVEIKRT
scFv: QSVLTQPPSASGTPGQRVTISCSGSSSNIGSNYVYWYQQLPGTAPKLLIYRNNQRPSGVPDRFSGSKSGTSASLAISGLRSEDEADYYCAAWDHHRSGAVFGGGTKLTVLGQAQPAAPAPNAHEAPAPAQGSEVQLVESGGGLVQPGGSLRLSCAASGFTFSSYWMSWVRQAPGKGLEWVANIKQDGSEKYYVDSVKGRFTISRDNAKNSLYLQMNSLRAEDTAVYYCARGYSAEFAHRSGLDVWGQGTLVTVSS
notes: Format as Bisslg_08_#1: aglycosylated human IgG1, AEASS Fc, knob-into-hole; also called CD3-MABGP in the bispecific 2+1 Fab2-Fc-scFv format; grandparent antibody CD3-MABGP
The EC50 is the concentration at which the effect is half-maximal. Low values mean a more potent agent, high ones a less potent agent. A word on the Kd: it is the free concentration of one partner at which half of the binding sites on the other are occupied at equilibrium, for simple one-to-one binding. Take B1: the “RGA @ antibody conc. of 1 nM [S/BG] SKBR3 (Jurkat NFAT reporter gene assay)” value in assay [1] stood at 1 S/BG. The concentration for a half-maximal effect (EC50) in assay [2] came out at 248 nM; in assay [3] it was 369 nM. The “T cell binding @ antibody conc. of 167 nM [S/BG]” value in [4] was 1.4 S/BG. In [5], this molecule returned a dissociation constant (Kd) of 240 nM.

B2: BissIg_18_opt_VH#1 (bispecific antibody, V domains shown)
VH 1: not shown
VL 1: not shown
VH 2: EVQLVESGGGLVQPGGSLRLSCAASGFSFGSHYMSWVRQAPGKGLEWVANINQIGYSSYYVESVKGRFTISRDNAKNSLYLQMNSLRAEDTAVYYCARGYSAEFAHRSGLDVWGQGTLVTVSS
VL 2: QSVLTQPPSASGTPGQRVTISCSGSSSNIGSNYVYWYQQLPGTAPKLLIYRNNQRPSGVPDRFSGSKSGTSASLAISGLRSEDEADYYCAAWDHHRSGAVFGGGTKLTVLGQ
notes: 1+1 IgG1 made by Fab-arm exchange; AEASS Fc; F405L in the CD3 half, K409R in the HER2 half
What is called koff is the rate constant with which the complex falls apart. As usually defined, the kon is the rate constant with which the complex forms. In the case of B2, in [6], the “Reporter gene assay MCF-7 EC50” value worked out at 0.33 nM and the “Reporter gene assay SKOV3 EC50” value was found to be 0.18 nM. In assay [7], the “T cell mediated killing MCF-7 [T cells] IC50 [pM]” value was determined as 210 pM and the “T cell mediated killing SKBR3 [PBMCs] IC50 [pM]” value came to 15 pM. In addition, the 50% effective concentration (EC50) in assay [8] was 9 nM. In assay [9], this molecule returned a koff of 0.0044 s⁻¹ and a kon of 250000 M⁻¹ s⁻¹. Binding in [10] was characterised by a dissociation constant (Kd) of 17 nM.

B3: BissIg_18_opt_VL (bispecific antibody, V domains shown)
VH 1: not shown
VL 1: not shown
VH 2: B2 VH 2 with S28T, G30S, H32Y, Y33W, N52K, I54D, Y56S, S57E, S58K, E62D
VL 2: B2 VL 2 with A91G, D93S, H94R, H95S, R96L, S97H
notes: as for B2
In assay [9], B3 yielded an off-rate constant (koff) of 0.0041 s⁻¹ and a kon of 150000 M⁻¹ s⁻¹. In [10], this molecule showed a Kd of 28 nM.

B4: BissIg_18_opt_cc# (bispecific antibody, human IgG1, kappa, lambda)
heavy 1: not shown
light 1: not shown
heavy 2: EVQLVESGGGLVQPGGSLRLSCAASGFSFGSHYMSWVRQAPGKGLEWVANINQIGYSSYYVESVKGRFTISRDNAKNSLYLQMNSLRAEDTAVYYCARGYSAEFAHRSGLDVWGQGTLVTVSSASTKGPSVFPLAPSSKSTSGGTAALGCLVKDYFPEPVTVSWNSGALTSGVHTFPAVLQSSGLYSLSSVVTVPSSSLGTQTYICNVNHKPSNTKVDKRVEPKSCDKTHTCPPCPAPEAEGAPSVFLFPPKPKDTLMISRTPEVTCVVVDVSHEDPEVKFNWYVDGVEVHNAKTKPREEQYNSTYRVVSVLTVLHQDWLNGKEYKCKVSNKALPSSIEKTISKAKGQPREPQVYTLPPSREEMTKNQVSLTCLVKGFYPSDIAVEWESNGQPENNYKTTPPVLDSDGSFLLYSKLTVDKSRWQQGNVFSCSVMHEALHNHYTQKSLSLSPGK
light 2: not shown
In the case of B4, in assay [6], the “Reporter gene assay MCF-7 EC50” value is less than 0.2 nM and the “Reporter gene assay SKOV3 EC50” value was found to be 0.07 nM. In assay [7], the “T cell mediated killing MCF-7 [T cells] IC50 [pM]” value was < 10 pM and 13.2 pM; the “T cell mediated killing SKBR3 [PBMCs] IC50 [pM]” value was 1.8 pM. The molecule also yielded an EC50 in [8] of 7 nM. In assay [9], this molecule displayed a koff of 0.0011 s⁻¹ and an on-rate constant (kon) of 1.2e+06 M⁻¹ s⁻¹. In assay [10], this molecule registered a Kd of 0.9 nM.
